Test results: US20250346646A1, “COMPOUNDS USEFUL TO TREAT METABOLIC DISORDERS” (President and Fellows of Harvard College, priority 2016, published 2025)

Columns and labels:
ob/ob mice = assay: CA33 treatment of leptin-deficient ob/ob mice; assay type: in vivo, mouse
Description: FIG. 11C is a bar graph showing fasting blood glucose levels (mg/dl) in ob/ob mice before (open bars) and after (solid bars) 3 weeks of CA33 antibody or vehicle treatment (n=10 mice per group). **p<0.01.
The test was performed after 2 weeks of vehicle (triangles) or CA33 antibody treatment (squares) in aP2−/− mice. *p<0.05.
(§1) The test was performed after 3 weeks of vehicle (triangles) or CA33 antibody treatment (squares) in aP2−/− mice.
as §1
Animal care and experimental procedures were performed with approval from animal care committees of Harvard University. Male mice (leptin-deficient (ob/ob) and diet induced obese (DIO) mice with C57BL/6J background) were purchased from The Jackson Laboratory (Bar Harbor, ME) and kept on a 12-hour light/dark cycle. DIO mice with C57BL/6J background were maintained on high-fat diet (60% kcal fat, Research Diets, Inc., D12492i) for 12 to 15 weeks before starting treatment except in clamp studies, for which they were on HFD for 20 weeks. Leptin-deficient (ob/ob) mice were maintained on regular chow diet (RD, PicoLab 5058 Lab Diet). Animals used were 18 to 31 weeks of age for dietary models and 9 to 12 weeks of age for the ob/ob model. In all experiments, at least 7 mice in each group were used, unless otherwise stated in the text. The mice were treated with 150 μl PBS (vehicle) or 1.5 mg/mouse (˜33 mg/kg) anti-aP2 monoclonal antibody in 150 μl PBS by twice weekly subcutaneous injections for 3 to 5 weeks. Before and after the treatment, blood samples were collected from the tail after 6 hours of daytime food withdrawal. Body weights were measured weekly in the fed state. Blood glucose levels were measured weekly after 6 hours of food withdrawal or after 16 hours overnight fast. After 2 weeks of treatment, glucose tolerance tests were performed by intraperitoneal glucose injections (0.75 g/kg for DIO, 0.5 g/kg for ob/ob mice). After 3 weeks of treatment, insulin tolerance tests were performed in DIO mice by intraperitoneal insulin injections (0.75 IU/kg). After 5 weeks of treatment, hyperinsulinemic-euglycemic clamp experiments were performed in DIO mice as previously described (Furuhashi et al., (2007) Nature 447, 959-965; Maeda et al., (2005) Cell metabolism 1, 107-119).
Finally, the effect of CA33 in a second model of severe genetic obesity and insulin resistance using leptin-deficient ob/ob mice was examined. Strikingly, hyperglycemia in the ob/ob mice was normalized in CA33-treated mice compared to controls (FIG. 11C).

Mouse aP2 = biological target: T1, Mouse aP2 (Mus musculus, UniProt P04117); assay: Biacore binding of CA33 to lipid-bound and lipid-free aP2
T1 construct: 10 His-tag (N, cleaved yes); TEV protease site (N, cleaved yes); made in house; host or cells: E. coli BL21DE3
T1 sequence (P04117 1-132): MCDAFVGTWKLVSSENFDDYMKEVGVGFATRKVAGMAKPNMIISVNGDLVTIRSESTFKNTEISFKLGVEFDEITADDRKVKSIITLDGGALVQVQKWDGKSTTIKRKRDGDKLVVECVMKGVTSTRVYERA
Description: The affinity of anti-aP2 binding to aP2 (recombinantly generated in E. coli as described below) was determined by biomolecular interaction analysis, using a Biacore T200 system (GE Healthcare). Affinipure F(ab′)2 fragment goat anti-mouse IgG, Fc fragment specific (Jackson ImmunoResearch Lab, Inc.) in 10 mM NaAc, pH 5 buffer was immobilized on a CM5 Sensor Chip via amine coupling chemistry to a capture level between 4500-6000 response units (RU) using HBS-EP+(GE Healthcare) as the running buffer. Anti-aP2 IgG was diluted to between 1-10 μg/ml in running buffer. A 60 s injection of anti-aP2 IgG at 10 μl/min was used for capture by the immobilized anti-mouse IgG, Fc then aP2 was titrated from 25 nM to 3.13 nM over the captured anti-aP2 for 180 s at 30 μl/min followed by 300 s dissociation. The surface was regenerated by 2×60 s 40 mM HCl and 1×30 s 5 mM NaOH at 10 μl/min. The data were analyzed using Biacore T200 evaluation software (version 1.0) using the 1:1 binding model with local Rmax. For CA33, 60 s injection of the antibody at 10 μl/min was used for capture by the immobilized anti-mouse IgG, Fc then aP2 was titrated from 40 μM to 0.625 μM over the captured anti-aP2 for 180 s at 30 μl/min followed by 300 s dissociation. The surface was regenerated by 1×60 s 40 mM HCl, 1×30 s 5 mM NaOH and 1×60 s 40 mM HCl at 10 μl/min. Steady state fitting was used to determine affinity values. […]

[1] = biological target: T2, glucagon/aP2 complex in wild-type serum (Mus musculus, UniProt P04117); assay: Co-immunoprecipitation of glucagon and aP2 from serum; settings: pre-incubation of wild-type serum with antibody
T2 construct: from tissue; host or cells: serum of wild-type mice
T2 sequence (P04117 1-132): T1 sequence (P04117 1-132)

aP2 = aP2 (Homo sapiens, UniProt P15090); assay: Paranaric acid (lipid) binding to aP2; settings: vs IgG control antibody, over pH
Description: FIG. 10F is a line graph showing paranaric acid binding to aP2 (relative fluorescence) vs. pH in the presence of IgG control antibody (circles) or CA33 antibody (squares).
In further analysis, epitope identification based on hydrogen-deuterium exchange mass spectrometry experiments, for example, as described by Pandit et al. (2012) J. Mol. Recognit. […] Co-crystallization of the Fab fragments of CA33 and H3 with aP2 (FIG. 10D) was then conducted. […] Despite the partial blocking of H3 by CA33, we observed that there is in fact no direct overlap of their epitopes. Instead, the significant movement of the region around aP2 Phe58 may partially block binding of one antibody by the other in the competition experiments. In addition, the low affinity of the CA33 Fab can be explained by the crystal structure. Unusually, only one amino acid in the heavy chain of CA33 makes a contact with aP2, and the majority of the contacts are through the light chain (FIGS. 10D and 10E). In contrast, H3-aP2 contact is more conventional, with both Fab chains interacting with aP2. […] H3 does bind directly to the ‘lid’ but has limited activity. Binding of CA33 to lipid-bound aP2 or lipid-free aP2 was also examined using biochemical analysis (Biacore). CA33 binds to both lipid-bound aP2 and lipid-free aP2 with the following affinities: […]

aP2, sequence (P15090 whole entry): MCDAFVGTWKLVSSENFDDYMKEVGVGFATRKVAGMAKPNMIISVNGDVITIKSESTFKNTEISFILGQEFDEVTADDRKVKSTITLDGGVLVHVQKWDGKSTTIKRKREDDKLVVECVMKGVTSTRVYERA

- Kd (Mouse aP2; De-lipidated mouse aP2, Biacore): 4.7 µM
- Kd (Mouse aP2; Lipid-loaded mouse aP2, Biacore): 9.3 µM
- Co-immunoprecipitation of glucagon and aP2 [1]: prevents co-immunoprecipitation
- Effect on lipid (paranaric acid) binding to aP2 (aP2): not substantially altered
B1: CA33: low-affinity anti-aP2 monoclonal antibody, rabbit-mouse hybrid, produced and purified by UCB; VL Seq. ID 28, VH Seq. ID 41 (antibody, V domains shown)
VH: QSVEESGGRLVTPGTPLTLTCTVSGFSLSTYYMSWVRQAPGKGLEWIGIIYPSGSTYCASWAKGRFTISKASTTVDLKITSPTTEDTATYFCARPDNDGTSGYLSGFGLWGQGTLVTVSS
VL: DVVMTQTPASVSEPVGGTVTIKCQASEDISRYLVWYQQKPGQPPKRLIYKASTLASGVPSRFKGSGSGTDFTLTISDLECDDAATYYCQCTYGTYAGSFFYSFGGGTEVVVE
modifications: Rabbit Ab 909 VH region; Rabbit Ab 909 VL-region
- Insulin levels (ob/ob mice; ob/ob mice): lower insulin levels
- Glucagon response (ob/ob mice; ob/ob mice after 3 weeks of treatment): blunts the glucagon response
- Hyperglycemia (fasting blood glucose) (ob/ob mice; ob/ob mice, 3 weeks of treatment, vs controls): normalized
- Glucose tolerance (GTT) (ob/ob mice; ob/ob mice, after 2 weeks, vs vehicle): significantly improved glucose tolerance
